One experiment has as its target T1, mouse Fas-IC (Mus musculus, UniProt P25446).
T1 construct: four constructs of the mouse Fas-IC; expressed in transfected cells; host or cells: SFY526 yeast
T1 sequence (P25446 187-327 limits assumed): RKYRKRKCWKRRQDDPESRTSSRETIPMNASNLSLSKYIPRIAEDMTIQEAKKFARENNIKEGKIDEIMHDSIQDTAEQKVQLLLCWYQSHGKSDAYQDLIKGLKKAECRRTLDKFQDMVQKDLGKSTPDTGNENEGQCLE
Nature of the experiment: Two-hybrid test of MORT-1 binding (FIG. 1), mouse Fas-IC. Particulars: transfected SFY526 yeasts. From the text:
(§1) To isolate proteins interacting with the intracellular domain of the FAS-R, the yeast two-hybrid system was used (Fields and Song, 1989). […] In this system, the genes for the candidate interacting proteins are cloned into separate expression vectors. In one expression vector, the sequence of the one candidate protein is cloned in phase with the sequence of the GAL4 DNA-binding domain to generate a hybrid protein with the GAL4 DNA-binding-domain, and in the other vector, the sequence of the second candidate protein is cloned in phase with the sequence of the GAL4 activation domain to generate a hybrid protein with the GAL4-activation domain. The two hybrid vectors are then co-transformed into a yeast host strain having a lacZ or HIS3 reporter gene under the control of upstream GAL4 binding sites. Only those transformed host cells (cotransformants) in which the two hybrid proteins are expressed and are capable of interacting with each other, will be capable of expressing the reporter gene. In the case of the lacZ reporter gene, host cells expressing this gene will become blue in color when X-gal is added to the cultures. […]
In FIG. 1, there is depicted the interaction of the proteins encoded by the Gal4 DNA binding domain and activation-domain constructs (pGBT9 and pGAD-GH) within transfected SFY526 yeasts as assessed by β-galactosidase expression filter assay. […]

Another experiment deals with T2, MORT1DD (130-245) (Homo sapiens, UniProt Q13158).
T2 construct: 130-245 MORT-1; expressed in transfected cells
T2 sequence (Q13158 82-197): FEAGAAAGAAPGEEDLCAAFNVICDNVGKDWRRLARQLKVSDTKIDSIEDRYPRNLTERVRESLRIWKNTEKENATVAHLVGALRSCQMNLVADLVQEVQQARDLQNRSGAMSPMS
The experiment can be described thus: Two-hybrid β-galactosidase expression filter assay in SFY526 yeast, DNA-binding domain hybrid MORT1DD (130-245).
Excerpt: as §1, with “sites.” for “sites. Only those transformed host cells (cotransformants) in which the two hybrid proteins are expressed and are capable of interacting with each other, will be capable of expressing the reporter gene. In the case of the lacZ reporter gene, host cells expressing this gene will become blue in color when X-gal is added to the cultures.”
(§2) The yeast two-hybrid test was further applied to evaluate the specificity of binding of MACH to MORT-1, in particular, to define the region in MORT-1 to which MACH binds, as well as to determine which of the MACH ORFs interacts with MORT-1, the procedures being as set forth herein above in Examples 1 and 2. Briefly, various MORT-1 and MACH constructs were prepared for testing the interaction of the proteins encoded by the Gal4 DNA-binding domain and activation domain constructs within transfected SFY526 yeast cells as assessed by the β-galactosidase expression filter assay. […]

The subject of another experiment is Lamin. Nature of the experiment: Two-hybrid β-galactosidase expression filter assay in SFY526 yeast, DNA-binding domain hybrid Lamin. Conditions: specificity test.
Excerpt: as §1, with “sites.” for “sites. Only those transformed host cells (cotransformants) in which the two hybrid proteins are expressed and are capable of interacting with each other, will be capable of expressing the reporter gene. In the case of the lacZ reporter gene, host cells expressing this gene will become blue in color when X-gal is added to the cultures.”
as §2

B1: MORT-1: Mediator of Receptor-induced Toxicity; protein binding the intracellular domain of FAS-R, SEQ ID NO:2 (protein)
chain: VNQAPECRFGGGILGPLGKRRDLARASEPRTEGARRAGPQPRPLADPAMDPFLVLLHSVSSSLSSSELTELKFLCLGRVVKRKLERVQSGLDLFSMLLEQNDLEPGHTELLRELLASLRRHDLLRRVDDFEAGAAAGAAPGEEDLCAAFNVICDNVGKDWRRLARQLKVSDTKIDSIEDRYPRNLTERVRESLRIWKNTEKENATVAHLVGALRSCQMNLVADLVQEVQQARDLQNRSGAMSPMSWNSDASTSEAS
For B1, the “binding to mouse Fas-IC in two-hybrid test” value with mouse Fas-IC is given as “binds”.

B2: MACHβ1: MACH isoform, cDNA SEQ ID NO: 4, amino acid SEQ ID NO: 5; lacks the CED3/ICE homology region (protein)
chain: MDFSRNLYDIGEQLDSEDLASLKFLSLDYIPQRKQEPIKDALMLFQRLQEKRMLEESNLSFLKELLFRINRLDLLITYLNTRKEEMERELQTPGRAQISAYRVMLYQISEEVSRSELRSFKFLLQEEISKCKLDDDMNLLDIFIEMEKRVILGEGKLDILKRVCAQINKSLLKIINDYEEFSKERSSSLEGSPDEFSNDFGQSLPNEKQTSGILSDHQQSQFCKSTGESAQTSQH
Consider B2, for which the “development of color (interaction with DNA-binding domain hybrid)” value with MORT1DD (130-245) and in the experiment with Lamin was “−−− (“−−−” indicates the lack of development of color within 24 hrs. of the assay)” in each case.

The values above are taken from patent US7799901B2, “Modulators of the function of FAS receptors and other proteins” (Yeda Research and Development Co. Ltd., priority 1995, dated 2010).
